{
  "source": "patent US20080213909A1",
  "about": "“PHARMACEUTICAL PACKAGING ASSAY” (priority 2006, published 2008)",
  "key": {"[1]": {"conditions": "supplier material data; cited from earlier work"}, "[2]": {"assay": "Direct vial assay: adsorption of Cy3-labeled fibrinogen to coated Type 1 glass surfaces (fluorescence)", "type": "physicochemical", "conditions": "5 μg/mL in 50 mM phosphate buffer pH 7, 4° C., 72 hours; four surfaces (FIG. 3)", "from_the_text": "(§1) One aspect of the invention is an assay method for the determination of drug adsorption to commercially available pharmaceutical packaging surfaces and test surfaces under development. Pharmaceutical packaging surface materials include glass, polymers (polyethylene, polypropylene, polycarbonate, polyterphalate, cylic olefin copolymer, etc.), elastomers (rubbers, etc.), metals and alloys for vials, syringes, ampoules, cartridges, stoppers, etc. and components thereof. The assay consists of the following steps: • 1) Drug of interest is labeled with a fluorescent chemical group and degree of incorporation of dye is quantified. • 2) Calibration curves of various concentrations of the fluorescently labeled biomolecules are generated. • 3) Fluorescently labeled drug solution is exposed to the pharmaceutical packaging surface of interest for a length of time ranging from minutes to years. • 4) Fluorescently labeled drug solution is removed from pharmaceutical packaging surface of interest. This solution can be analyzed to determine the amount of drugs remaining in the solution. […] Aliquots of the solution, or aliquots of the solution first concentrated, are then applied to a sample holding surface for determination of biomolecular adsorption via fluorescence measurements. […]"}, "[3]": {"assay": "Direct vial assay: adsorption of labeled insulin to various coated surfaces (fluorescence)", "type": "physicochemical", "conditions": "10 μg/mL in 50 mM phosphate buffer pH 7, 4° C., 72 hours; nine surfaces (FIG. 6)", "from_the_text": "as §1"}},
  "data": [
    {"substance": "fibrinogen", "values": [
      {"measurement": "pI", "setting": "[1]", "value": 5.4},
      {"measurement": "protein adsorption to sample surfaces", "setting": "[2]", "value": "quantifiable difference in protein adsorption between various sample surfaces"}
    ]},
    {"substance": "insulin: Porcine insulin from Sigma (15523), test biomolecule", "values": [
      {"measurement": "pI", "setting": "[1]", "value": 7.0},
      {"measurement": "protein adsorption to sample surfaces, normalized to Type 1 vial", "setting": "[3]", "value": "quantifiable difference in protein adsorption between various sample surfaces"}
    ]}
  ]
}
